In experiment [1] the target is T1, human PD-L1 (Homo sapiens (Human)., UniProt Q9NZQ7).
T1 construct: human PD-L1, recombinant; also called PD-L1 monomer; programmed cell death-ligand 1; source: bought: ACRO Biosystems (449-9AWF1-RA)
The experiment is described as follows: SPR; Biacore 8K, 25 °C; antibody or fusion protein captured by anti-human IgG (Fc) on a CM5 chip; analyte (VEGF165 from 3 nM or PD-L1 from 50 nM, 2-fold titrations) injected 120 s, dissociation 1800 s, 30 μL/min; single-cycle kinetics, 1:1 model; no enhancement step (buffer). The settings on record: both partners purified.

For experiment [2], the target named is T1, human PD-L1. The experiment is described as follows: SPR; as a1, but 10 nM human VEGF165 injected first to saturate VEGF binding by captured HB0025, then PD-L1 as analyte. The settings on record: both partners purified.
In experiment [3] the target is T1, human PD-L1. Briefly: ELISA; plates coated with recombinant human PD-L1 or VEGF165 (100 ng/well, carbonate buffer); antibody 1 h at room temperature; detected with HRP goat anti-human Fc, TMB, 450 nm. The settings on record: both partners purified.
Experiment [4] concerns the target T1, human PD-L1. The experiment is described as follows: cell-based or functional assay.
The target of experiment [5] is T1, human PD-L1. The experiment is described as follows: SPR; valence: HB0025 (300 RU), HB0023 (250 RU) or HB002.1T (200 RU) captured; 200 nM PD-L1 injected twice for 60 s, then 10 nM VEGF165 twice for 60 s; stoichiometric ratio from response units and molecular weights; running buffer pH 7.4. The settings on record: both partners purified.
Experiment [6] has as its target T2, human VEGF165 protein (human).
T2 construct: human VEGF-A, the 165-residue isoform VEGF165; also called VEGF dimer; source: bought: Sino Biological Inc. (11066-HNAH)
Briefly: SPR; Biacore 8K, 25 °C; antibody or fusion protein captured by anti-human IgG (Fc) on a CM5 chip; analyte (VEGF165 from 3 nM or PD-L1 from 50 nM, 2-fold titrations) injected 120 s, dissociation 1800 s, 30 μL/min; single-cycle kinetics, 1:1 model; no enhancement step (buffer). The settings on record: both partners purified.

The target of experiment [7] is T2, human VEGF165 protein. Briefly: ELISA; plates coated with recombinant human PD-L1 or VEGF165 (100 ng/well, carbonate buffer); antibody 1 h at room temperature; detected with HRP goat anti-human Fc, TMB, 450 nm. The settings on record: both partners purified.

T1 sequence (Q9NZQ7 19-238): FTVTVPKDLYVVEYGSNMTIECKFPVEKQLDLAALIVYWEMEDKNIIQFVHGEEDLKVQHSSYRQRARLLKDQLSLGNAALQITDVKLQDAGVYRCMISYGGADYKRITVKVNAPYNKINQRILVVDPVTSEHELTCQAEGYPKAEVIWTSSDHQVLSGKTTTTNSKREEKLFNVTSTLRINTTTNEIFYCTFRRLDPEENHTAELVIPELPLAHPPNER

B1: HB0025 (anti-PD-L1/VEGFR1D2-Ig fusion protein) (bispecific antibody, V domains shown)
VH: QVQLVQSGAEVKKPGASVKVSCKASGYAFTGYTIHWVRQAPGQRLEWMGWFYPGSGTLKYSEKFQGRVTITRDKSLSTAYMELSSLRSEDTAVYYCARHGTGTLMAMDYWGQGTLVTVSS
VL: DVVMTQTPLSLSVTPGQPASISCKSSQSLANSYGNTYLSWYLHKPGQSPQLLIYGISNRFSGVPDRFSGSGSGTDFTLKISRVEAEDVGVYYCLQGTHQPPTFGQGTKLEIK
notes: soluble extracellular domain 2 of human VEGF receptor 1 (VEGFR1D2); humanized VH of the parent anti-PD-L1 antibody HB0023; human IgG1 heavy constant domains, as in the heavy chain of HB0023; IgG1-like mAb-Trap format; Clinical trial NCT04678908; also called bispecific antibody; BsAb; copies: 2 +
With B1, in the experiment with human PD-L1 [1], the Kd came out at 1.76 nM, the off-rate (koff) was determined as 0.00051 s⁻¹ and the kon came out at 290000 M⁻¹ s⁻¹. In the experiment with human PD-L1 [2], this molecule yielded a Kd of 1.98 nM, an off-rate constant (koff) of 0.000395 s⁻¹ and a kon of 200000 M⁻¹ s⁻¹. The EC50 with human PD-L1 [3] came out at 0.67 nM. Further, the “EC50 of the recovery of IL-2 secretion in a mixed lymphocyte reaction (DCs and PBMCs, 3.8 pM-25 nM antibody); blocks PD-1/PD-L1” value with human PD-L1 [4] is approximately 509 pM. Moreover, the “stoichiometry N” value in the experiment with human PD-L1 [5] is approximately 1.7 PD-L1 monomers per HB0025.

B2: HB002.1T (VEGFR1D2-Ig fusion protein) (Fc fusion)
chain: SDTGRPFVEMYSEIPEIIHMTEGRELVIPCRVTSPNITVTLKKFPLDTLIPDGKRIIWDSRKGFIISNATYKEIGLLTCEATVNGHLYKTNYLTHRQTNTIID
modifications: Fc-dimerised fusion: D2 at the N-terminus of IgG Fc, with Fc and any linker left out. Limits are inferred from HB0025 numbering, assuming HB002.1T has the same D2. N36/N68 and the N99-T100 cleavage …
In the case of B2, in the experiment with human VEGF165 protein [6], the dissociation constant (Kd) is 0.00111 nM, the koff was 5.03e-05 s⁻¹ and the kon is 4.54e+07 M⁻¹ s⁻¹. Also, the EC50 with human VEGF165 protein [7] stood at 0.17 nM.

(Values after article PMC8678608, “A Novel Bispecific Antibody Targeting PD-L1 and VEGF With Combined Anti-Tumor Activities” (Frontiers in Immunology, 2021).)
